# Data published in the DeepSol protein solubility set.
# Test: soluble on expression in E. coli; label from the status in PepcDB or PDB records
row,Sequence,soluble on expression in E. coli
1,MLTAQTKNTQTLMPLTERVNVQADSARINQIIDGCWVAVGTNKPHAIQRDFTNLFDGKPSYRFELKTEDNTLEGYAKGETKGRAEFSYCYATSDDFKGLPADVYQKAQITKTVYHHGKGACPQGSSRDYEFSVYIPSSLDSNVSTIFAQWHGMPDRTLVQTPQGEVKKLTVDEFVELEKTTFFKKNAGHEKVVRLDKQGNPMKDKNGKPVYKAGKLNGWLVEQGGYPPLAFGFSGGLFYIKANSDRKWLTDKDDRCNANPGKTPVMKPLTSEYKASTIAYKLPFADFPKDCWITFRVHIDWTVYGKEAETIVKPGMLDVRMDYQEQGKKVSKHIVNNEKILIGRNDEDGYYFKFGIYRVGDSTVPVCYNLAGYSERLE,soluble
2,MGSDKIHHHHHHMPRDLPPLNALRAFTAAAKRLSFTQAAEDLGVTQAAVSHQIRGLEDWLGVALFRRRNKQVVMTEAGQVYALAIGQALDEIAEATAALVRNDPRAGMLTISTMPSFAIKWLVQRLGGFINANPDIEVRLHTTRELVNFATEGIDVAIRMTREVGDDLHADLLLEEELFPVCSPALMRGIRPLRQPSDLSQHLLLQDVGISWVSWLDPAGALDVRPARGPGYLDSALAIQACIESQGVMLGRTVMVEDDLKAGRLVEPFTLRVPSPMKYWLVCPPGHLARPGVRAFREWILAEASKWTKARSSAHGVED,not soluble
3,MSLKWNRPAGSLSATLILAHGAGAPMDSPFMERIAELLAAQGIAVARFEFPYMAQRREDGRKRPPNPQAQLLDCWRRVHAQVRETLDGPLALGGKSMGGRMASLLADELGADALVCLGYPFYAAGKPEKPRVAHLAGLRTPTLIVQGERDALGNREAVAGYALAPTIRLHWLAAADHDLKPLKASGLTHEQHLAATAREVAGFLRGLQGH,not soluble
4,MKGPNLTEISKKITDSNAVLLAVKEVEALLSSIDEIAAKAIGKKIHQNNGLDTENNHNGSLLAGAYAISTLIKQKLDGLKNEGLKEKIDAAKKCSETFTNKLKEKHTDLGKEGVTDADAKEAILKTNGTKTKGAEELGKLFESVEVLSKAAKEMLANSVKELTSPVVAESPKKP,soluble
5,MKFKYLSTPLLFSALLFSACSSVNVGANLKSLIKETTDQDLDLSESVSTSEGKKNLISSLKKSYETNPSKTASVLLNAWKQSVENGQIESSETNWTNWKFP,soluble
6,MMAEFETVNDVKQLNGLALAYIGDAVYEVYVRRHLLAGGSVRPHELHRRAVRYVSARAQARVILALLDEGVLTEEEKDIVRRGRNAKSGTIPKNTDVQTYRHSTAFEALIGYHFLVNNEKRVDELIGRSFAIIEREERALE,not soluble
7,MSDGKIIHDPVHGSMKIPEELIKLVDTPEIQRLRYIRQLGLANLVYPGANHSRFEHSLGVWYLAKKLSSELDIPRDEALLVQISALLHDIGHGPFSHTFERVYKERLKIGDHMEISRKIIEGKIDIVENGGEIPDIISDLGYSPKEVGELICGVHKKKYLSMIINGDIDVDQLDYLARDAHYTGVAHGIIDLERLLNVMKIHDNELVVDEKGLEAVEGMLVARSLMYSRVYFHRTVKIAEAMLIKGVEFALDSGELFDFWKMTDDRLIVELEDIGGFPSEIIQKIRRRELYKPAVIVGPQDLTGDERRIIASLYKNTKKIRELENELADRVGASEGEVIIELSVPELIISEPRLKQIEISILLGDGKKEPLTKVTPLASAIKRRQTPRWILIIATPPNYVEKVKSVWRKVIF,not soluble
8,MGSDKIHHHHHHMFKETLRECMEGHTLAERKAEQVMDAIMKGEATASQIASLLTVLRFRGETVAEMTGFARAMRRHSIQIEHSFSQVVDTCGTGGDDVGTFNISTATALLVSALGVPVAKHGNRAVSSKSGSADVLEALQIPIQSSPEEATASLQKHNMCFMFAPLYHVAMKHAVAPRKEIGFRTIFNLLGPLTNPARAEHQLIGVYDRNFAEKMAETLRRLGTKHSLLVAGHGGLDELSITGPSTVFEVKGDAIDRYELIPEDVGLERGDLAQIQVSTVQESATLIDQVLIGKANKSAQQIVLLNAGAALYAADRVDSIKAGVALAKEGIASGHVADHVRNLRQTDQEAEQHA,not soluble
9,MSLAAHWEIAVKNSSRSAVDPFIVMDVMEAARRAEEAGRRIIHMEVGQPGTGAPRGAVEALAKSLETDALGYTVALGLPALRQRIARLYGEWYGVDLDPGRVVITPGSSGGFLLAFTALFDSGDRVGIGAPGYPSYRQILRALGLVPVDLPTAPENRLQPVPADFAGLDLAGLMVASPANPTGTMLDHAAMGALIEAAQAQGASFISDEIYHGIEYEAKAVTALELTDECYVINSFSKYFSMTGWRVGWMVVPEDQVRVVERIAQNMFICAPHASQVAALAALDCDAELQANLDVYKANRKLMLERLPKAGFTRIAPPDGAFYVYADVSDLTDDSRAFAAEILEKAGVAVTPGLDFDPERGAGTLRFSYARATADIEEGLDRLEAFMQARGEGHHHHHH,soluble
10,MSLDYTYADDSLTLHTDMYQINMMQTYWELGRADLHAVFECYFREMPFNHGYAIFAGLERLVNYLENLTFTESDIAYLREVEEYPEDFLTYLANFEFKCTVRSALEGDLVFNNEPLIQIEGPLAQCQLVETALLNMVNFQTLIATKAARIKSVIGDDPLLEFGTRRAQELDAAIWGTRAAYIGGADATSNVRAGKIFGIPVSGTHAHSLVQSYGNDYEAFMAYAKTHRDCVFLVDTYDTLKAGVPSAIRVAREMGDKINFLGVRIDSGDMAYISKRVREQLDEAGFTEAKIYASNDLDENTILNLKMQKSKIDVWGVGTKLITAYDQPALGAVFKLVSIEGEDGQMKDTIKLSSNAEKVTTPGKKQVWRITRKSDKKSEGDYVTLWNEDPRQEEEIYMFHPVHTFINKYVRDFEARPVLQDIFVEGKRVYELPTLDEIKQYAKENLDSLWEEYKRDLNPQKYPVDLSTDCWNHKMNLLEKVRKDVKHLTETVNKEAEGHHHHHH,soluble
11,MALYQRWRCLRLQGLQACRLHTAVVSTPPRWLAERLGLFEELWAAQVKRLASMAQKEPRTIKISLPGGQKIDAVAWNTTPYQLARQISSTLADTAVAAQVNGEPYDLERPLETDSDLRFLTFDSPEGKAVFWHSSTHVLGAAAEQFLGAVLCRGPSTEYGFYHDFFLGKERTIRGSELPVLERICQELTAAARPFRRLEASRDQLRQLFKDNPFKLHLIEEKVTGPTATVYGCGTLVDLCQGPHLRHTGQIGGLKLLSNSSSLWRSSGAPETLQRVSGISFPTTELLRVWEAWREEAELRDHRRIGKEQELFFFHELSPGSCFFLPRGTRVYNALVAFIRAEYAHRGFSEVKTPTLFSTKLWEQSGHWEHYQEDMFAVQPPGSDRPPSSQSDDSTRHITDTLALKPMNCPAHCLMFAHRPRSWRELPLRLADFGALHRAEASGGLGGLTRLRCFQQDDAHIFCTTDQLEAEIQSCLDFLRSVYAVLGFSFRLALSTRPSGFLGDPCLWDQAEQVLKQALKEFGEPWDLNSGDGAFYGPKIDVHLHDALGRPHQCGTIQLDFQLPLRFDLQYKGQAGALERPVLIHRAVLGSVERLLGVLAESCGGKWPLWLSPFQVVVIPVGSEQEEYAKEAQQSLRAAGLVSDLDADSGLTLSRRIRRAQLAHYNFQFVVGQKEQSKRTVNIRTRDNRRLGEWDLPEAVQRLVELQNTRVPNAEEIF,soluble
12,MNVVKISPRGYCYGVVDAMVLARQAAQNLDLPRPIYILGMIVHNKHVTDAFEEEGIISLDGPNRLDILKQVDKGTVIFTAHGVSPQVRKLAKEKGLTVVDATCPDVTRTHDLIREKSQEGYKFIYVGKKGHPEPEGAIGVAPEFVHLVENVEDVESLDISADKIIITNQTTMSQWDVSEIMKKAMEKYPQAEVHNEICLATQVRQEAVAEQARECDLVIVVGDPKSNNSNRLAQVSEQIAGTKAYRIGDVTELQQEWFDGVETVGVTAGASTPTPITKEVIAFIEKYDPSKPETWTPERKVTLQKILPKVKIKKLEHHHHHH,soluble
13,MGSDKIHHHHHHMKVIIVDDDKAMFLILKKMLSKIHNVEVIGTFDRLSTTMEFLENNEVDLAFLDIKISGDNGIDLAKQIVNLKKQINIVFISSHKEFALDSFDVFPLDYIVKPVSQEKLERAIDRASKVIIKSGEEEYKAFIYCFGGLEVRGRNNESVKWISTKSMELFSYLVINSGRSISRGRVIKDIFEEMELKDVESYLNTIVYQLRKALSPLGLKKIITFDSQGYSFDFKDVYVDYIDFISGVESIKEINKDNIDRAKQLVYLYKGDLFDDKEYIWAVGEKEYASNLYSKFLGKVCSWYLENDLINDAYSMGKKLIQYNELDSEVNKIFMNILAARRDKISLNKHYERYAKVLFRELGVKVEDSVEELYRKLIKVLR,not soluble
14,MGSDKIHHHHHHMIDVENILEKMKPNQKINYDWVMQQMVKQWQASDIRPKILMHVCCAPCSTYTLEYLSQWADVTIYFANSNIHPKDEYYRREYVTQKFVHDFNKNTGYSVQFLSAPYEPNEFFKIVHGLEEEPEGGDRCKVCYDFRLDKTAEKAVELGFDYFGSALTISPHKNSQTINTIGIDVQKIYDTQYLPSDLKKNKGYQRSVEMCKDYDIYRQCYCGCIFGAKDQGINLLQIKKDAKAFVSDKDGKEEFPNIRFTFNGKSM,not soluble
15,MRNIMEQYTEKPEILMLTQQSLQSENFKEMLSKNTETKITIIDAKNPSYHELIPDRYFLLVDFSVDTPSDTLVYLKDSNKVLGTIMLNLGYDLDTEELASWPHVKGIFGPLDSMEKVCRGLGAIVKGDNWLSRRLLDQLVNYYKGKESNNVSEP,not soluble
16,SEELDRQKIGGFWREVGVASDQSLVLTAPKRVEGLFLTLSGSNLTVKVAYNSSGSCEIEKIVGSEIDSTGKFAFPGKCSCPVMAGGTRLCTQLGLIVPHAVPCTVPHAVPCTVLCAVPCTVPHAVP,soluble
17,SLIENSHVKKDDIWPSGGQMTVKDLTAKYTEGGNAILENISFSISPGQRVGLLGRTGSGKSTLLSAFLRLLNTEGEIQIDGVSWDSITLEQWRKAFGVIPQKVFIFSGTFRKNLDPYEQWSDQEIWKVADEVGLRSVIEQFPGKLDFVLVDGGCVLSHGHKQLMCLARSVLSKAKILLLDEPSAHLDPVTYQIIRRTLKQAFADCTVILCEARIEAMLECDQFLVIEENKVRQYDSIQKLLNERSDFRQAISPSDGPSAQLEKELQALEKENAQLEWELQALEKELAQ,soluble
18,DDDGEHGGRRAALVVTDPLTRTECSACHMAYPAALLPARSWTALMADLPNHFGEDASLDEASRGQIESYLVANAADSSGAGRALRGLVQTDTPLRISELPWFKRKHADEVSPRMLEKARSMSNCAACHTGAERGLFDDD,soluble
19,MLRIVLARSSRAMSSASPASASDSDTSVRKIGKALETYLKHSQQHVAMMEKHRAEFETGRRHLAKMMSLDIHELDQEAIDRAILYLFPSGLTDPNARPVMRPPDEILPKFQRFTFDEEGKPEGSRFFTLSPKIYGLLSDIGVKTHSVMKFYDEHVGSRSVNRSDLEPANLSGSQWVTADKLKKKLSEKFSKELYGQVIIAFEHLASLPGSAIEQKFLMEFREPMTASTGSKLFGPAIPEVHVCAVTNRRYAEVTTRCKDTRATVKVTDAGKGKFDIDGLQLHDFRHLQAREILLAPMIVSQSLGRFDVTATTSCISNTLPEAPNKAPLMRSGGMSALPRAVRHGTALCVAALQPEAIEPLRLSGLLTLDPRKNERSKVNQPGARAKWIWKRR,not soluble
20,MIRQTPLEKRYDKLGPHIVTALKKRYFDAYYCKTRNEALQQILDLIPQNHVVSWGGSETLKEMGVQTAVREKGFKVIDRDLAKTPEERTEIMRQALLCDTFLMSSNAISEDGQLFNIDGNGNRVAAMIFGPKNVIVVAGMNKIVKNIDDAIQRTRTVASPAVVQRFQDVNTPCYINGSCIDCTSPESICAYMVTTRISRPAKKIKVILVGENLGLLEHHHHHH,soluble
